Laboratory results from article PMC8109768, “Differential recognition of HIV-stimulated IL-1β and IL-18 secretion through NLR and NAIP signalling in monocyte-derived macrophages” (PLoS Pathogens, 2021).

How the values were obtained:
NAIP (human) [1] = target: NAIP (human) (UniProt Q13075); assay: SPR; BIAcore 3000; NAIP amine-coupled to a CM5 chip; gp41 proteins (500ng, 1μg, 5μg, 10μg) injected at flow rate 10 ml/min for 240 s; flagellin as positive control; BIA EVALUATION 3.0
NAIP (human) [2] = target: NAIP (human) (UniProt Q13075); assay: FRET or BRET; FRET between fluorophore-labelled antibodies (Alexa488 donor, Alexa546 acceptor) in monocyte-derived macrophages infected with HIV-1; dequenching of the donor after photobleaching of the acceptor
NAIP = target: T1, NAIP (human, UniProt Q13075-1 1-1403); assay: SPR; BIAcore 3000; NAIP amine-coupled to a CM5 chip; gp41 proteins (500ng, 1μg, 5μg, 10μg) injected at flow rate 10 ml/min for 240 s; flagellin as positive control; BIA EVALUATION 3.0; settings: both partners purified
T1 construct: NAIP, human, endogenous protein; for SPR pulled out of a human cell lysate with an antibody column; also called human NAIP; endogenous NAIP; source: purified from human cell lysate (NHS column with NAIP antibody LS-B455, dialysis, gel filtration); endogenous, human monocyte-derived macrophages (in cells and in lysate)
T1 sequence (looked up): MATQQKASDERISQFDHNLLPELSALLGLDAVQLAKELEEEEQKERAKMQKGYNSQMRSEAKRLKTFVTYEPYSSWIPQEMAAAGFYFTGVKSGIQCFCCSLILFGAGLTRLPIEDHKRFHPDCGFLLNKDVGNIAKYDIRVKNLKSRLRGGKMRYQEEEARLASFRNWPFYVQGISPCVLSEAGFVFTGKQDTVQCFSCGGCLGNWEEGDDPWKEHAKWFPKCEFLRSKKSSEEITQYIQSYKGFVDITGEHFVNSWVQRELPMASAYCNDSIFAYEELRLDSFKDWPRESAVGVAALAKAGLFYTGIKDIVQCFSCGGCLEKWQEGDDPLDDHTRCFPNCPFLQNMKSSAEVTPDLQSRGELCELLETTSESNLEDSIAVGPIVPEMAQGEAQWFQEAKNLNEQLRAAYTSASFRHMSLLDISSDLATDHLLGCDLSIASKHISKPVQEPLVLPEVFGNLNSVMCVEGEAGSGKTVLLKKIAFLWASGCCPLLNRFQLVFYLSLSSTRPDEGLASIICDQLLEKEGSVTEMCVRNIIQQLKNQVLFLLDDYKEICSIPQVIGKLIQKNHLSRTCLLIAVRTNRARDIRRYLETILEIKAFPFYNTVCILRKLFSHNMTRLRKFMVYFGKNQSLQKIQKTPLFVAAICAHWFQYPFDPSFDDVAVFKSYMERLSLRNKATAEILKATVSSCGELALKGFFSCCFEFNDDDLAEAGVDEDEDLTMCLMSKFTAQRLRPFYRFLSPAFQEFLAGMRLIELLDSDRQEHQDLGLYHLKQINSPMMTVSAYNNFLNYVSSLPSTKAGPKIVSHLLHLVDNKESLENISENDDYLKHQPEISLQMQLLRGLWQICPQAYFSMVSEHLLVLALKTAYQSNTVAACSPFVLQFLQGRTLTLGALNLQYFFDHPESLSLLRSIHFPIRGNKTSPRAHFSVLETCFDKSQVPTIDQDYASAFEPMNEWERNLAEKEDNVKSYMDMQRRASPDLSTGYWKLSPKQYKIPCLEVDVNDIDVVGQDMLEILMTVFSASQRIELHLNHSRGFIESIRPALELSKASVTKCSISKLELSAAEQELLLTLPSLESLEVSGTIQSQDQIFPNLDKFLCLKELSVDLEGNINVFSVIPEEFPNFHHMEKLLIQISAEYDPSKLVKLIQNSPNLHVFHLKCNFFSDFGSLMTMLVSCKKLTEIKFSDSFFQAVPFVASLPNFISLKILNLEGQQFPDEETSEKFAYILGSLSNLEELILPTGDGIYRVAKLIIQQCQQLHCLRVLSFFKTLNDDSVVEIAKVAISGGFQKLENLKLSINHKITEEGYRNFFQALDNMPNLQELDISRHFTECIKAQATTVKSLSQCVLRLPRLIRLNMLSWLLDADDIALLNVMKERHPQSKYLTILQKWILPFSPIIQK

Molecule “Flagellin (from UniProt P06179 1-495) (natural protein)” has a Kd (NAIP (human) [1]) of 0.0247 nM, a koff (NAIP (human) [1]) of 9.81e-07 s⁻¹ and a kon (NAIP (human) [1]) of 39700 M⁻¹ s⁻¹.

“HIV-1 glycoprotein 41 (gp41) (natural protein)” was tested, and the FRET efficiency E (NAIP (human) [2]) was 24%.

With “gp41 CT (from UniProt P04578 707-856) (domain or fragment)” the Kd (NAIP (human) [1]) was 0.413 nM, the koff (NAIP (human) [1]) was 9.87e-06 s⁻¹ and the kon (NAIP (human) [1]) was 23900 M⁻¹ s⁻¹.

B1: gp41TM/CT (domain or fragment)
chain: FIMIVGGLVGLRIVFAVLSIVNRVRQGYSPLSFQTHLPTPRGPDRPEGIEEEGGERDRDRSIRLVNGSLALIWDDLRSLCLFSYHRLRDLLLIVTRIVELLGRRGWEALKYWWNLLQYWSQELKNSAVSLLNATAIAVAEGTDRVIEVVQGACRAIRHIPRRIRQGLERILL
In the case of B1, the Kd (NAIP) is reported as 1.59 nM, the koff (NAIP) is reported as 6.91e-05 s⁻¹ and the kon (NAIP) is reported as 43500 M⁻¹ s⁻¹.
